{
  "source": "paper PMC12567051",
  "about": "“Performing Dual Glucose Clamp Experiments in Sedated Farm Swine: A Practical Method” (Methods and Protocols, 2025)",
  "assay": "Insulin pharmacokinetics during hyperinsulinemic-euglycemic clamp",
  "format": "in vivo",
  "details": "24 clamps in 2 swine",
  "description": "One CSII was initiated with commercial insulin lispro (U-100, Eli Lilly and Company, Indianapolis, IN, USA) at 0.4 units/hour, and one with preservative-free saline or diluent via 2 commercial insulin pumps. This strategy was used to mimic real-world conditions and avoid potential occlusion of the catheters, while comparing occlusion rates between insulin and saline infusions. Postoperatively, the swine were monitored twice daily for signs of pain/discomfort, hypoglycemia, and infection. Glucose concentrations (trends) were also monitored using two real-time continuous glucose sensors (CGM G4 Dexcom Inc, San Diego, CA, USA) placed laterally on the lower abdomen.\nOnce the fasting animal was comfortably positioned in the sling apparatus, endogenous insulin secretion was suppressed using an octreotide infusion. An initial octreotide bolus dose (7.2 µg/kg) was administered 60 min prior to starting the clamp, followed by a maintenance dose of (3.6 µg/kg/h). […]\nAfter beginning the clamp study on the first swine, a second team ensured that duplicate laboratory and anesthesia equipment were set up and calibrated in the other half of the procedure room. […] Blood glucose measurements and insulin samples were obtained at 5 and 10 min intervals for 240 min, while other data, such as vital signs and gas concentrations, were recorded continuously.",
  "data": [
    {"substance": "insulin lispro", "values": [
      {"measurement": "time for insulin concentrations to return to near baseline", "setting": "after bolus insulin 0.15 IU/kg via CSII catheter, sedated farm swine", "value": "≤ 90", "unit": "min"},
      {"measurement": "insulin Cmax", "setting": "sedated female farm swine, bolus insulin 0.15 IU/kg via CSII catheter (subcutaneous, abdomen), endogenous insulin suppressed with octreotide, glucose clamped at 85 mg/dL, mean", "value": 0.1085, "unit": "nM"}
    ]}
  ]
}
